These results are taken from article PMC4948116.

Holding throughout (assay): SPR
The target of test [1] is CD32A-131H (human) (UniProt P12318).
Test [2] deals with CD32A-131R (human).
Test [3] has as its target Human recombinant CD16A-158F (human) (UniProt P08637).
Test [4] addresses Human recombinant CD16A-158V (human).
The target of test [5] is Human recombinant CD16B (human) (UniProt O75015).
The target in test [6] is Human recombinant CD32B (human) (UniProt P31994).
Sequence of UniProt P31994 (P31994 43-217): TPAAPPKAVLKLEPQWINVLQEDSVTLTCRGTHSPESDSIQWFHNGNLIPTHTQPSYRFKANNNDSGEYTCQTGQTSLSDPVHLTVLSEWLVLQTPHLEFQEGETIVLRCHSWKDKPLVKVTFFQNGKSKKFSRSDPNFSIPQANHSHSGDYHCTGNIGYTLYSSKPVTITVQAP

Sequence of UniProt P08637 (P08637 17-208): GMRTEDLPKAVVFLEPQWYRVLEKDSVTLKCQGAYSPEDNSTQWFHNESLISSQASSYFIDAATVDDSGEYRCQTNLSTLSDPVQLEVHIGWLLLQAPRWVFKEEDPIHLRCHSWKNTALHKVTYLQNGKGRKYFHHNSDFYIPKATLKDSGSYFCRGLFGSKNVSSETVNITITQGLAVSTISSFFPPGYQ
Sequence of UniProt P12318 (P12318 34-317): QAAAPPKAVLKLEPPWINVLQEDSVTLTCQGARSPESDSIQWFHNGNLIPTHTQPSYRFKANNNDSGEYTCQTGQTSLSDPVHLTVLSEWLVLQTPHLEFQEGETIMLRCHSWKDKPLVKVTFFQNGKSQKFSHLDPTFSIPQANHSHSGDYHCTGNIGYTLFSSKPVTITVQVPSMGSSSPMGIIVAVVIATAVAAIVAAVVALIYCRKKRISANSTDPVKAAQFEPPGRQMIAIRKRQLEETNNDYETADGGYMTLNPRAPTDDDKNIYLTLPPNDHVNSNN
Sequence of UniProt O75015 (O75015 17-200): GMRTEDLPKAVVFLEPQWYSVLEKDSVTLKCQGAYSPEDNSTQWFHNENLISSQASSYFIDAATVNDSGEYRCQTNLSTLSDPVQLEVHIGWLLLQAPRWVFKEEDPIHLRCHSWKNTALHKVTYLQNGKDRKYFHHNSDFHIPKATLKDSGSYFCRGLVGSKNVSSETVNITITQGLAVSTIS

For the substance hu3F8-IgG1 (antibody), the Kd in test [1] was determined as 541 nM; in test [2] it was 786 nM; in test [3], 2090 nM; in test [4] it was 726 nM; in test [5], 2030 nM; in test [6] it was 2400 nM. Further, the ka1 (two-state reaction, first step) in test [4] is 134000 M⁻¹ s⁻¹. In addition, the kd1 (two-state reaction, first step) in test [4] came to 0.212 s⁻¹. In test [4], the kd2 (two-state reaction, second step) worked out at 0.00897 s⁻¹.

Take hu3F8-IgG1-DEL (antibody): the affinity relative to hu3F8-IgG1 on CD16A(158F) in test [3] is 16 fold.
